Data on 3 molecules can be found in doi:10.1101/2022.09.15.508077 (bioRxiv, 2022).

Experiment [1] has as its target T1, UFL1 27-200 (the UFL1 piece of the fusion DDRGK1-UFL1ΔN) (UniProt O94874 27-200).
T1 sequence: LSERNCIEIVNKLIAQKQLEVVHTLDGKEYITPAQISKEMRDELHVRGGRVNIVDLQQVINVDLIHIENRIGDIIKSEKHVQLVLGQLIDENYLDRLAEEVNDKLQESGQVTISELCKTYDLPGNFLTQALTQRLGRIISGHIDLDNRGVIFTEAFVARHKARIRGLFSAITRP
The experiment in a line: crystal structure.

In experiment [2] the target is T2, UFC1 (UniProt Q9Y3C8 1-167).
T2 sequence: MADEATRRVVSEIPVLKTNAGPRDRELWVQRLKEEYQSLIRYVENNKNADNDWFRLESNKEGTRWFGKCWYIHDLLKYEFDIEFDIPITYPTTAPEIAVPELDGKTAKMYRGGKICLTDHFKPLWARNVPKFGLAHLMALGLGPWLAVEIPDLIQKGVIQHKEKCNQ
The experiment in a line: NMR titration.

In experiment [3] the target is T2, UFC1. The experiment in a line: ITC. Background: In ITC the heat of successive injections is recorded.

B1: DDRGK1 207-305 (the DDRGK1 piece of the fusion DDRGK1-UFL1ΔN) (domain or fragment)
chain: MTEEQSQSFLTEFINYIKQSKVVLLEDLASQVGLRTQDTINRIQDLLAEGTITGVIDDRGKFIYITPEELAAVANFIRQRGRVSIAELAQASNSLIAWG
As for B1, in experiment [1], the binding result is “binds”.

B2: UBA5 C-terminus (UBA5 347-404) (domain or fragment)
chain: SEVSEEELKNFSGPVPDLPEGITVAYTIPKKQEDSVTELTVEDSGESLEDLMAKMKNM
As for B2, in experiment [2], the binding result was “binds”.

B3: DDRGK1_(207-314)-UFL1_(1-200) fusion protein (other)
chain: MTEEQSQSFLTEFINYIKQSKVVLLEDLASQVGLRTQDTINRIQDLLAEGTITGVIDDRGKFIYITPEELAAVANFIRQRGRVSIAELAQASNSLIAWGRESPAQAPAMADAWEEIRRLAADFQRAQFAEATQRLSERNCIEIVNKLIAQKQLEVVHTLDGKEYITPAQISKEMRDELHVRGGRVNIVDLQQVINVDLIHIENRIGDIIKSEKHVQLVLGQLIDENYLDRLAEEVNDKLQESGQVTISELCKTYDLPGNFLTQALTQRLGRIISGHIDLDNRGVIFTEAFVARHKARIRGLFSAITRP
For orientation: Kd means the free concentration of one partner at which half of the binding sites on the other are occupied at equilibrium, for simple one-to-one binding. The low end stands for a tighter complex, the high end for a looser complex. With B3, the Kd in experiment [3] stood at 2.4 µM.
